System: HfqBc (Hfq6) (Burkholderia cenocepacia J2315)
Assay: EMSA
Conditions: no MtvR; complexes seen only at 500 nM HfqBc or higher; excess yeast tRNA; 20 mM Tris-Cl pH 8.0, 1 mM DTT, 1 mM MgCl2, 10 mM KCl, 10 mM KH2PO4, excess yeast tRNA, 30 min at 25 C; native 8% PAGE with 10% glycerol

**Q.** For hfqEc full mRNA (5'-UTR + CDS), which Kd is on record?
**A.** 11.6 µM
